Source: US20240417475A1 (AFFIMED, published 2024)
One block for each binder: values may come before it.

Assays:
[1] = target: CD16A endogenously expressed on primary human NK cells (human, UniProt P08637 17-254); assay: flow cytometry on primary human NK cells, without IgG, range of 4 experiments
Procedure: 4° C., and resuspended in 50 μL/well of diluted antibody constructs. […] After 40-50 minutes' incubation at 37° C., cells were washed 3-times with ice-cold FACS buffer. […] After the final incubation step, cells were washed 2-times with ice-cold FACS buffer, and the cell pellet was resuspended in 50 μL FACS buffer. Fluorescence intensity of >1×10⁴ viable cells was analyzed by flow cytometry and the median fluorescence intensity (MFI) was determined for each sample.
(§1) Equilibrium dissociation constants (KD) of antibody binding were calculated by plotting MFI values and fitting a non-linear regression model for one-site binding to hyperbolic dose-response curves using GraphPad Prism.

[2] = target: T1, human FOLR1 expressed on CHO cells (cAg_125) (human, UniProt P15328 25-234); assay: flow cytometry on huFOLR1 CHO cells (cAg_125), one-site fit of MFI, Exp. 1
T1 construct: whole, on cells; also called huFOLR1
Procedure: (§2) To analyze binding of different antibody constructs to CHO cells transfected with human FOLR1 (cAg_125) and cynomolgus FOLR1 (cAg_126), 1-5×10⁵ were resuspended in 100 μL FACS buffer (PBS (BioWest, cat.: L0615-500) containing 2% heat-inactivated FCS (Invitrogen, cat.: 10500-064), and 0.1% sodium azide (Sigma, cat.: S8032_100G)) in round-bottom 96-well microtiter plates. After washing in FACS buffer, cells were incubated in 50 μL FACS buffer without antibodies or with titrated antibodies starting at a concentration of 1000 nM followed by eleven 3-fold serial dilutions for 40-50 min on ice in the dark. […] After washing, binding was measured by flow cytometry and mean fluorescence intensities (MFI) of cell samples were calculated and corrected for background staining using control cells stained with secondary antibodies only.
as §1, with “Binding of antibody constructs to huFOLR1-as well as cyFOLR1-transfected CHO cells was measured by flow cytometry. Equilibrium” for “Equilibrium”

[3] = target: T2, cynomolgus FOLR1 expressed on CHO cells (cAg_126) (cynomolgus, UniProt A0A2K5U044 25-234); assay: flow cytometry on cyFOLR1 CHO cells (cAg_126), one-site fit of MFI, mean
T2 construct: whole, on cells; also called cyFOLR1
Procedure: as §2
as §1, with “Binding of antibody constructs to huFOLR1-as well as cyFOLR1-transfected CHO cells was measured by flow cytometry. Equilibrium” for “Equilibrium”

[4] = target: T3, cynomolgus CD16 expressed on CHO cells (cAg_36) (cynomolgus, UniProt Q8SPW2 17-254); assay: flow cytometry on cyCD16 CHO cells (cAg_36), one-site fit of MFI, Exp. 3
T3 construct: whole, on cells; also called cyCD16
Procedure: (§3) After washing in FACS buffer, cells were incubated in 50 μL FACS buffer without antibodies or with titrated antibodies starting at a concentration of 1000 nM followed by elven 3-fold serial dilutions for 40-50 min on ice in the dark. […] After washing, binding was measured by flow cytometry and mean fluorescence intensities (MFI) of cell samples were calculated and corrected for background staining using control cells stained with secondary antibodies only.
as §1

[5] = target: T4, human CD16A (158V) expressed on CHO cells (cAg_35) (human, UniProt P08637 17-254); assay: flow cytometry on huCD16A (158V) CHO cells (cAg_35), one-site fit of MFI, Exp. 2
T4 construct: also called huCD16A (158V)
Procedure: as §3, §1

[6] = target: T1, human FOLR1 expressed on CHO cells …; assay: flow cytometry on huFOLR1 CHO cells (cAg_125), one-site fit of MFI, Exp. 2
Procedure: as §2
as §1, with “Binding of antibody constructs to huFOLR1-as well as cyFOLR1-transfected CHO cells was measured by flow cytometry. Equilibrium” for “Equilibrium”

[7] = target: T3, cynomolgus CD16 expressed on CHO cells …; assay: flow cytometry on cyCD16 CHO cells (cAg_36), one-site fit of MFI, Exp. 1
Procedure: as §3, §1

[8] = target: T1, human FOLR1 expressed on CHO cells …; assay: flow cytometry on huFOLR1 CHO cells (cAg_125), one-site fit of MFI, Exp. 3
Procedure: as §2
as §1, with “Binding of antibody constructs to huFOLR1-as well as cyFOLR1-transfected CHO cells was measured by flow cytometry. Equilibrium” for “Equilibrium”

[9] = target: T2, cynomolgus FOLR1 expressed on CHO cells …; assay: flow cytometry on cyFOLR1-transfected CHO cells (cAg_126), on ice, FITC goat anti-human IgG detection
Procedure: as §2

[10] = target: T5, human FOLR1 endogenously expressed on tumor cell lines (human, UniProt P15328 25-234); assay: cell-based or functional assay
[11] = target: T5, human FOLR1 endogenously expressed on …; assay: flow cytometry on OVCAR-3 cells, 37 C, one-site fit of MFI, mean
Procedure: Cells were collected and centrifuged at 400×g, 5 min, 4° C. Cell pellets were resuspended in FACS buffer (PBS (Invitrogen, cat.: 392-0434) containing 2% h.i. FCS (Invitrogen, cat.: 10500-064), and 0.1% sodium azide (Sigma, cat.: S8032)) at 1-5×10⁶ cells/mL. 100 μL/well of the cell suspension were transferred into U-shaped, 96-well micro plates (0.1-0.5×10⁶ cells per well), cells were pelleted at 400×g, 5 min, 4° C., and resuspended in 100 μL/well of serial dilutions of the indicated antibodies in FACS buffer. After 40-50 min incubation at 37° C., cells were washed 3-times with ice-cold FACS buffer. […] After the final incubation step, cells were washed 2-times with ice-cold FACS buffer, and the cell pellet was resuspended in 100 μL FACS buffer. Fluorescence intensities of >1×10⁴ viable cells were analyzed by flow cytometry and the median fluorescence intensity (MFI) was determined for each sample.
Equilibrium dissociation constants (KD) of antibody binding, mean and standard deviation (SD) were calculated by plotting MFI values and fitting a non-linear regression model for one-site binding to hyperbolic dose-response curves using GraphPad Prism for Windows (v9; GraphPad Software; La Jolla California USA).
Specific antibody binding capacity (SABC) as a marker for FOLR1 expression level on cells was determined on all tumor cell lines using QIFIKIT.

T2 sequence (A0A2K5U044 entry or part of it): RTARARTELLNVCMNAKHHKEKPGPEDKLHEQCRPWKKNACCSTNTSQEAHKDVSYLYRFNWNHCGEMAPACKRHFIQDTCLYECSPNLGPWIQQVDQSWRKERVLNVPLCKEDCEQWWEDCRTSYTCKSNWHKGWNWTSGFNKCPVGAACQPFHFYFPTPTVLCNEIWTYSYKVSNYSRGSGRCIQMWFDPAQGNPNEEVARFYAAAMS
T5 sequence (P15328 25-234): as the sequence (A0A2K5U044 entry or part of it) above, with T2I, R4W, K37R, P146A, Y171H counted along it
T1 sequence (P15328 25-234): as the sequence (A0A2K5U044 entry or part of it) above, with T2I, R4W, K37R, P146A, Y171H counted along it
T3 sequence (Q8SPW2 17-254): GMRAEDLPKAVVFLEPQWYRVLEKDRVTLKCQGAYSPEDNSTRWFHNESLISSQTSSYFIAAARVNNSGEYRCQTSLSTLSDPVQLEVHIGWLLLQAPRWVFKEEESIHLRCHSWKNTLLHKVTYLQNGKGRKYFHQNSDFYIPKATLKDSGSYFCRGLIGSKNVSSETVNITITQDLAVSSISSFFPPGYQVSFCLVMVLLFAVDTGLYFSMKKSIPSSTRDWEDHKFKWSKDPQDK
CD16A endogenously expressed on primary human NK cells, sequence (P08637 17-254 limits assumed): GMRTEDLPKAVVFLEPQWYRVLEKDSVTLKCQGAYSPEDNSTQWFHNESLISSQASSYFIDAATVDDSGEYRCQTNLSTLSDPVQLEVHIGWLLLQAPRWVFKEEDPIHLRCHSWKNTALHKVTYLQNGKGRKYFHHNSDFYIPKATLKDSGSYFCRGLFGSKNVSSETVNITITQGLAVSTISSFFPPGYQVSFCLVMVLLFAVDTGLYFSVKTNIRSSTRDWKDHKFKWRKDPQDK
T4 sequence (P08637 17-254 F176V limits assumed): as the sequence (P08637 17-254 limits assumed) above, with F160V counted along it

Kd [1]: 3.7 to 5.4 nM
Kd [2]: 35.1 nM
Kd [3]: 16.3 nM
Kd [4]: 22.8 nM
Kd [5]: 29.1 nM
Kd [6]: 31.6 nM
Kd [7]: 26.6 nM
Kd [8]: 40.6 nM
EC50 (read off the curve) [9]: ~20 nM
EC50 of ADCC, 4 h calcein release, NK cells, HCC-827 cells [10]: 6 pM
EC50 of ADCC, 4 h calcein release, NK cells, OVCAR-3 cells [10]: 0.8 pM
Kd [11]: 1.7 nM
B1: scFv-IgAb_387 (FOLR1_1×CD16a3) (bispecific antibody)
heavy: EVQLVESGGGVVQPGRSLRLSCSASGFTFSGYGLSWVRQAPGKGLEWVAMISSGGSYTYYADSVKGRFAISRDNAKNTLFLQMDSLRPEDTGVYFCARHGDDPAWFAYWGQGTPVTVSSASTKGPSVFPLAPSSKSTSGGTAALGCLVKDYFPEPVTVSWNSGALTSGVHTFPAVLQSSGLYSLSSVVTVPSSSLGTQTYICNVNHKPSNTKVDKKVEPKSCDKTHTCPPCPAPEFEGGPSVFLFPPKPKDTLMISRTPEVTCVVVAVSHEDPEVKFNWYVDGVEVHNAKTKPREEQYNSTYRVVSVLTVLHQDWLNGKEYKCKVSNKALPAPIEKTISKAKGQPREPQVYTLPPSREEMTKNQVSLTCLVKGFYPSDIAVEWESNGQPENNYKTTPPVLDSDGSFFLYSKLTVDKSRWQQGNVFSCSVMHEALHNHYTQKSLSLSPGGGGGSGGGGSGGGGSGGGGSGGGGSGGGGSSYELTQPLSVSVALGQTARITCGGNNIGSKSVHWYQQKPGQAPVLVIYQDKKRPSGIPERFSGSNSGNTATLTISRAQAGDEADYYCQVWDDYIVLFGCGTKLTVLGGSGGSGGSGGSGGSGGSGGSQVQLVQSGAEVKKPGASVKVSCKASGYTFTNYYMQWVRQAPGQCLEWMGIINPSGGVTSYAQKFQGRVTMTRDTSTSTVYMELSSLRSEDTAVYYCARGSAYYYDFADYWGQGTLVTVSSG
light: DIQLTQSPSSLSASVGDRVTITCSVSSSISSNNLHWYQQKPGKAPKPWIYGTSNLASGVPSRFSGSGSGTDYTFTISSLQPEDIATYYCQQWSSYPYMYTFGQGTKVEIKRTVAAPSVFIFPPSDEQLKSGTASVVCLLNNFYPREAKVQWKVDNALQSGNSQESVTEQDSKDSTYSLSSTLTLSKADYEKHKVYACEVTHQGLSSPVTKSFNRGEC
modifications: Chemically biotinylated (NHS-PEG4-biotin) in Example 22 only.
notes: Tetravalent bispecific scFv-IgAb; also called FOLR1×CD16A scFv-IgAb_387; FOLR1/CD16A scFv-IgAb_387; copies: 2 + 2

Kd [2]: 20.3 nM
Kd [3]: 12.4 nM
Kd [4]: 28.2 nM
Kd [5]: 43.3 nM
Kd [6]: 24.4 nM
Kd [7]: 38.6 nM
Kd [8]: 29.3 nM
EC50 (read off the curve) [9]: ~10 nM
B2: scFv-IgAb_381 (FOLR1_1×CD16a4) (bispecific antibody)
chain 1: EVQLVESGGGVVQPGRSLRLSCSASGFTFSGYGLSWVRQAPGKGLEWVAMISSGGSYTYYADSVKGRFAISRDNAKNTLFLQMDSLRPEDTGVYFCARHGDDPAWFAYWGQGTPVTVSSASTKGPSVFPLAPSSKSTSGGTAALGCLVKDYFPEPVTVSWNSGALTSGVHTFPAVLQSSGLYSLSSVVTVPSSSLGTQTYICNVNHKPSNTKVDKKVEPKSCDKTHTCPPCPAPEFEGGPSVFLFPPKPKDTLMISRTPEVTCVVVAVSHEDPEVKFNWYVDGVEVHNAKTKPREEQYNSTYRVVSVLTVLHQDWLNGKEYKCKVSNKALPAPIEKTISKAKGQPREPQVYTLPPSREEMTKNQVSLTCLVKGFYPSDIAVEWESNGQPENNYKTTPPVLDSDGSFFLYSKLTVDKSRWQQGNVFSCSVMHEALHNHYTQKSLSLSPGGGGGSGGGGSGGGGSGGGGSGGGGSGGGGSSYELTQPLSVSVALGQTARITCGGHNIGSKNVHWYQQKPGQAPVLVIYQDNKRPSGIPERFSGSNSGNTATLTISRAQAGDEADYYCQVWDNYNVLFGCGTKLTVLGGSGGSGGSGGSGGSGGSGGSQVQLVQSGAEVKKPGASVKVSCKASGYTFTSYYMHWVRQAPGQCLEWMGAIEPTYGSTSYAQKFQGRVTMTRDTSTSTVYMELSSLRSEDTAVYYCARGSAYYYDFADYWGQGTLVTVS
chain 2: B1 light
notes: also called FOLR1×CD16A scFv-IgAb_381
